Results on one substance are retold here after patent US20210284729A1.

Values joined by “and” are separate entries in the source; they are usually repeats but may differ in a detail not shown here. Equal entries are not always repeated.

The experiment concerns the target 4-1BB (CD137) on T cells (human) (UniProt Q07011). Nature of the experiment: cell-based or functional assay.

Chain of 4-1BB (CD137) on T cells (human) (Q07011 24-255): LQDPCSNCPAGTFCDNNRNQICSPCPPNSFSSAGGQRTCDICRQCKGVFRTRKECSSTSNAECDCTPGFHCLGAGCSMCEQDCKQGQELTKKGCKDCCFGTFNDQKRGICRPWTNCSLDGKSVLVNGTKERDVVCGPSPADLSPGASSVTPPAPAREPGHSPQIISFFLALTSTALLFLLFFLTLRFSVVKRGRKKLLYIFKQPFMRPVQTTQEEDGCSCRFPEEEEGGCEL

With “co-stimulatory 4-1BB ligand (CD137L) expressed on the surface of gene-modified hMSCs (SCP-1) (from UniProt P41273 1-254)”, the IFN-gamma secretion by T cells (ELISA, 24 h) was greater than 10 fold; the T cell expansion (T cell number at day 6 to day 0) was 2 fold and 3 fold; the TNF-alpha secretion by T cells (ELISA, 24 h) is less than 8 fold; the expansion of autologous AML patient T cells after 96 h of co-culture came to 3 fold.
